Reference: the supplement of paper PMC7125110
± gives the standard error. Fewer inactive variants are shown than the library holds.

B1: glmS ribozyme (parent)
chain: AUAAAAGCGCCAGAACUACAGAAAUGUAGUUGACGAGGAGGAGGUUUAUCGAAUUUUCGGCGGAUGCCUCCAAA

Legend:
Details in all cases: with glucosamine-6-phosphate
[1] = variants of: B1; assay: self-cleavage kobs at 640 uM GlcN6P; higher = faster cleavage; RNA array
In short: (§1)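 A hybridised Cy3 probe tracked barcoded ribozyme variants, transcribed in situ by E. coli RNA polymerase on sequenced MiSeq chips, at 37 °C. The variants received 40 μM to 10 mM glucosamine-6-phosphate in HEPES/KCl/Mg(OAc)2 buffer. kobs came from decay fits and kcat and KM from weighted Michaelis–Menten fits.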

[2] = variants of: B1; assay: self-cleavage kobs at 2500 uM GlcN6P; higher = faster cleavage; RNA array
In short: as §1

[3] = variants of: B1; assay: self-cleavage kobs at 10000 uM GlcN6P; higher = faster cleavage; RNA array
In short: as §1

Variant	self-cleavage kobs at 640 uM GlcN6P [1] [s⁻¹]	self-cleavage kobs at 2500 uM GlcN6P [2] [s⁻¹]	self-cleavage kobs at 10000 uM GlcN6P [3] [s⁻¹]
A14U A15G G37A	0.000119 ± 2.8e-05	0.000224 ± 4.9e-05	–
G13C G29A G40C	< 1e-05	–	–
A14U C67U C68G	0.000113 ± 3.4e-05	–	–
C16U A53G C70A	0.000224 ± 3.5e-05	0.000232 ± 6.5e-05	–
C16U U49G	0.000174 ± 4.8e-05	0.000685 ± 0.00023	0.000387 ± 6.5e-05
A14U G35A A64G	< 1e-05	–	–
A12G U45C C50U	< 1e-05	< 1e-05	–
A14C G41A C70U	0.00173 ± 0.00026	0.00489 ± 0.0012	0.0111 ± 0.0021
A15U G35U U46A	< 1e-05	< 1e-05	–
A15U G38U G40C A52U C58U C61G	< 1e-05	–	–
A15G U49G U65G C70A	0.00349 ± 0.0014	–	–
A15U U45C C50G U69G	< 1e-05	< 1e-05	–
C16G C34G A42C G43A	< 1e-05	–	–
A15U A28C A33U	< 1e-05	–	–
A14G G35U G37C U47C	< 1e-05	–	–
A15G A42C A64C U69C	< 1e-05	–	–
A14U U46G G60A C71A	< 1e-05	–	–
A15G G51C A52G G62A	< 1e-05	< 1e-05	–
A14U G29A U47G C50U A53C C70G	0.00022 ± 4.5e-05	0.000165 ± 3.4e-05	–
A12G A39G C50A	< 1e-05	–	–
A15G G38U	< 1e-05	–	–
A14G G43C G51U A64G	< 1e-05	–	–

Variant	self-cleavage kobs at 640 uM GlcN6P [1] [s⁻¹]	self-cleavage kobs at 2500 uM GlcN6P [2] [s⁻¹]	self-cleavage kobs at 10000 uM GlcN6P [3] [s⁻¹]
A15U U45A G66U	4.46e-05 ± 1.6e-05	–	–
C16G G51A A64U	< 1e-05	–	–
G13U A15U C70U	3.4e-05 ± 9.4e-06	7.46e-05 ± 2.2e-05	5.88e-05 ± 1.3e-05
G13C G32A U45A A52U G60A G62C A64G C68U	< 1e-05	< 1e-05	–
C16A U30G U45G G60A G66U	< 1e-05	–	–
A12U A53C C67U	0.00253 ± 0.0006	–	–
C16G U46A U49G C67G U69G C71G	< 1e-05	–	–
A12C G44U	9.03e-05 ± 1.7e-05	8.38e-05 ± 2.6e-05	0.000382 ± 5.4e-05
A14C A36U G38A U69A	7.64e-05 ± 1.8e-05	–	–
A14C A42G G43A U69C C70U	< 1e-05	–	–
A14U U31C A39C	7.42e-05 ± 1.4e-05	0.000324 ± 6.8e-05	0.000464 ± 6e-05
A12U A15U C68G	8.06e-05 ± 2.7e-05	–	–
A14U C61A G66A	< 1e-05	–	–
A12U G35U	< 1e-05	–	–
A14G C16A G40A	0.000169 ± 3e-05	0.00023 ± 6.8e-05	–
G13A G32C G43C C68G	7.7e-05 ± 2.2e-05	0.000154 ± 5e-05	–
A12G U30A G44A	< 1e-05	–	–
A12U C50U G59U	< 1e-05	< 1e-05	< 1e-05
A14G U69A C70A	5.74e-05 ± 2.2e-05	8.42e-05 ± 1.9e-05	–
C16A U56G U65G	5.32e-05 ± 2.4e-05	0.000165 ± 5.6e-05	–
A14G A36C G40C G51C	< 1e-05	–	–
C16G U45C U54A C70U	6.18e-05 ± 2.7e-05	–	–

Variant	self-cleavage kobs at 640 uM GlcN6P [1] [s⁻¹]	self-cleavage kobs at 2500 uM GlcN6P [2] [s⁻¹]	self-cleavage kobs at 10000 uM GlcN6P [3] [s⁻¹]
A12C A15G A39C	5.62e-05 ± 1.6e-05	0.000163 ± 4.9e-05	–
A12G U55A	0.000161 ± 2.2e-05	0.000248 ± 4e-05	0.00094 ± 8.5e-05
G13C A14G A42G	0.000198 ± 6.9e-05	0.000379 ± 9.2e-05	–
A12G U45G A52U C61G	< 1e-05	–	–
A12U A15C C71A	0.000661 ± 0.00015	0.0015 ± 0.00053	–
G13U A64U C70G	< 1e-05	–	–
G13U G37U G40A U69G	< 1e-05	< 1e-05	< 1e-05
A15G A36U U45G U46G A64G	< 1e-05	–	–
A15C C16U U45A	0.000911 ± 0.00018	0.00147 ± 0.00058	–
A15G C16A C58A A64U C70U	8e-05 ± 1.9e-05	–	–
A18C G35U U57A	< 1e-05	–	–
C16U A36C G38A	< 1e-05	–	< 1e-05
A14U C50G G62A	0.000193 ± 8.2e-05	–	–
A15U G35U A39C	< 1e-05	< 1e-05	–
A12G U57A G60U	< 1e-05	< 1e-05	< 1e-05
G13A G29C G66U	< 1e-05	–	–
G13A A14C U30G	4.76e-05 ± 1.8e-05	–	–
A12U G35C C70U	< 1e-05	< 1e-05	–
A12G U54A	0.000125 ± 2.3e-05	0.000221 ± 4.5e-05	0.000878 ± 0.00013
G13U U31C G62A	< 1e-05	–	–
G13C G43U G59U	< 1e-05	< 1e-05	–
A15C G37C	< 1e-05	–	–
